Laboratory results: US20230144436A1, “MUSCLE TARGETING COMPLEXES AND USES THEREOF FOR TREATING MYOTONIC DYSTROPHY” (Dyne Therapeutics, Inc., priority 2020, published 2023)

Experiments:
hTfR1 = hTfR1 (Homo sapiens, UniProt P02786); experiment: Binding kinetics of anti-TfR1 antibodies on Carterra LSA, hTfR1; conditions: Carterra LSA at 25 C
Experimental: Selected anti-TfR1 antibodies were tested for their binding affinity to human TfR1 for measurement of Ka (association rate constant), Kd (dissociation rate constant), and KD (affinity). […] The binding experiment was performed on Carterra LSA at 25 C. An anti-mouse IgG and anti-human IgG antibody “lawn” was prepared on a HC30M chip by amine coupling. 59 IgGs (58 mouse mAbs and 1 human mAb) were captured on the chip. Dilution series of hTfR1, cyTfR1, and hTfR2 were injected to the chip for binding (starting from 1000 nM, 1:3 dilution, 8 concentrations).
Binding data were referenced by subtracting the responses from a buffer analyte injection and globally fitting to a 1:1 Langmuir binding model for estimate of Ka (association rate constant), Kd (dissociation rate constant), and KD (affinity) using the Carterra™ Kinetics software. 5-6 concentrations were used for curve fitting.

DMPK [1] = experiment: DMPK knockdown by anti-TfR1 antibody-oligonucleotide conjugates in NHP myotubes; type: cell-based, non-human primate; conditions: conjugate with control DMPK-ASO, 72 hours, concentration not stated (0.5, 5, 50 nM tested)
Experimental: (§1) The purified complexes were then tested for cellular internalization and inhibition of the target gene, DMPK. Non-human primate (NHP) or DM1 (donated by DM1 patients) cells were grown in 96-well plates and differentiated into myotubes for 7 days. Cells were then treated with escalating concentrations (0.5 nM, 5 nM, 50 nM) of each complex for 72 hours. Cells were harvested, RNA was isolated, and reverse transcription was performed to generate cDNA. qPCR was performed using TaqMan kits specific for Ppib (control) and DMPK on the QuantStudio 7. The relative amounts of remaining DMPK transcript in treated vs non-treated cells was were calculated and the results are shown in Table 14 and FIG. 20.
as §1, with “of” for “of the target gene,”, “in” for “in Table 14 and”, “23.” for “20.”

DMPK [2] = experiment: DMPK knockdown by anti-TfR1 antibody-oligonucleotide conjugates in DM1 patient myotubes; type: cell-based, human; conditions: for % knockdown of DMPK in cells from human DM1 patients using Antibody-DMPK ASO conjugate: DM1 patient myotubes, conjugate with control DMPK-ASO, 72 hours, concentration not stated (0.5, 5, 50 nM tested)
Experimental: as §1
as §1, with “of” for “of the target gene,”, “in” for “in Table 14 and”, “23.” for “20.”

Chain of hTfR1 (P02786 whole entry): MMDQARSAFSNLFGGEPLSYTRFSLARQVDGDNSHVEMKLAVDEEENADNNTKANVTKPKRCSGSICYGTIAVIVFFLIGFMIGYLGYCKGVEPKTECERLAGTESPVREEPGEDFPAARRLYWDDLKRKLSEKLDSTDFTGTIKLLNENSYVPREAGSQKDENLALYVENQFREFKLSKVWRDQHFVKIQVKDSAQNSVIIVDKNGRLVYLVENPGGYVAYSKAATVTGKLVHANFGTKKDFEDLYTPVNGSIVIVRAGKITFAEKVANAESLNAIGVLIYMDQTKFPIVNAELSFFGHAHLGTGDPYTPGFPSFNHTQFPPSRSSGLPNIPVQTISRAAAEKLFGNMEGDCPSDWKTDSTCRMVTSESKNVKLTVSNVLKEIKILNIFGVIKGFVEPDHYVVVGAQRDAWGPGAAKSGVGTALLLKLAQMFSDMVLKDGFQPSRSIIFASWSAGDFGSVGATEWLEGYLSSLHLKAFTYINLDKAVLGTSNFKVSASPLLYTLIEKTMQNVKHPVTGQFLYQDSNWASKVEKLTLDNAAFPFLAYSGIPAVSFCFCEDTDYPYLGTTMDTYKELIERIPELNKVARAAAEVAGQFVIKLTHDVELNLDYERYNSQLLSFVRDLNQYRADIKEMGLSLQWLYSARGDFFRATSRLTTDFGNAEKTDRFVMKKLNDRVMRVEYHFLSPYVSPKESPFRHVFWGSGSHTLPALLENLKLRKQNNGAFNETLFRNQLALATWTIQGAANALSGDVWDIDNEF

Molecule | dissociation rate constant (koff) (hTfR1) | % knockdown of DMPK in NHP cells using Antibody-DMPK ASO conjugate (DMPK [1]) | % knockdown of DMPK in cells from human DM1 patients using Antibody-DMPK ASO conjugate (DMPK [2]) | activity in delivering a payload (DMPK ASO) and achieving DMPK knockdown compared to the control antibody 15G11 (DMPK [2]; conjugates with control DMPK-ASO, in either cyno cells or human DM1 patient cells)
3-M12 (antibody, V domains shown) VH: DVQLQESGPGLVKPSQSLSLTCSVTGYSITSGYYWNWIRQFPGNKLEWMGYITFDGANNYNPSLKNRISITRDTSKNQFFLKLTSVTTEDTATYYCTRSSYDYDVLDYWGQGTTLTVSS VL: DIQMTQTTSSLSASLGDRVTISCRASQDISNFLNWYQQRPDGTVKLLIYYTSRLHSGVPSRFSGSGSGTDFSLTVSNLEQEDIATYFCQQGHTLPYTFGGGTKLEIK | 127 µM | 77% | 52% | superior activity
9-K23 (antibody, V domains shown) VH: QVTLKESGPGMLQPSQTLSLTCSFSGFSLNTYDVGVGWIRQPSGKGLEWLANIWWNDDKYYNSALKSRLTISKDTSNNQVFLKISSVDTADTATYYCTLYSYDGGFAYWGQGTLVTVSA VL: QIVLTQSPAIMSASLGERVTMTCTASSSVSSSYLHWYQQKPGSSPKLWIYSTSNLASGVPARFSGSGSGTSYSLTISSMEAEDAATYYCHQYHRSPYTFGGGTKLEIK | 21.7 µM | 47% | −4% | –
10-H2 (antibody, V domains shown) VH: EVQLVESGGDLVKPGGSLKLSCAASGFTFSDYGMHWVRQGPEKGLEWVAYINSGSSTIYYADTVKGRFTISRDNAKNTLFLQMTSLRSEDTAMYYCARPGDYDNYAMDYWGQGTSVTVSS VL: DIVMTQSHKFLSTSVGDRVSITCKASQDVSVAVAWYQQKPGQSPKLLIYWAYTRHTGVPDRFTGSGSGTEYTLTISSVQAEDLALYYCQQHYNTPPWTFGGGTKLEIK | – | 2% | 16% | –
2-H19 (antibody, V domains shown) VH: EVQLQQSGAELVRSGASVKLSCTASGFNIKDYYMHWVKQRPEQGLEWIGWIDPESGDTEYAPKFQGRATMTADTSSNTAYMQLSSLTSEDTAVYYCYGHDYRVDCWGQGTSVTVSS VL: DVVMTQTPLSLPVSLGDQASISCRSSQSLVHSNGNTYLHWYLQKPGQSPKLLIYKVSNRFSGVPDRFSGSGSGTDFTLKISRVEAEDLGVYFCSQSTHIPWTFGGGTKLEIK | 456 µM | 39% | 24% | –
4-J22 (antibody, V domains shown) VH: EVQLQQSGAELVRSGASVKLSCTASGFNIKDYYIHWVKQRPEQGLEWIGWIDPENADTEYAPKFQGKATMTPDTSSNTAYLQLSSLTSEDTAVYYCYAWDYSMDYWGQGTSVTVSS VL: DVVMTQTPLSLSVSLGDQASISCRSSQSLVHSNGNTYLHWYLQKPGQSPKLLIYKVSNRFSGVPDRFSGSGSGTDFILKISRVEAEDLGVYFCSQNTHVPYTFGGGTRLEIK | – | 7% | 57% | –
8-O17 (antibody, V domains shown) VH: QVQLKESGPGLVAPSQSLSITCTVSGFSLTNYGVHWVRQPPGKGLEWLVVIWNDGSATYNSALESRLSISKDNSKSQVFLKMNSLQTDDTAMYYCARHESSNPFAYWGQGTLVTVSA VL: DILLTQSPAILSVSPGERVSFSCRASQSIGTSIHWYQQRTNGSPRLLIKSASESIAGIPSRFSGSGSGTDFTLSINSVESEDIADYYCQQNNRWPYTFGGGTKLEIK | 91.2 µM | 26% | 41% | –
